According to doi:10.1101/2021.05.23.445342 (bioRxiv, 2021):

Assays:
[1] = target: T1, Calcineurin (human PPP3CA / PPP3R1 heterodimer) (human, UniProt Q08209 1-521; P63098 1-170); assay: ITC; ITC200, 25 °C; 250 µM AKAP5c or AKAP5c_(ILVF->SA) injected into 18.32 µM Calcineurin; 10 mM Tris/HCl pH 7.4, 150 mM NaCl, 5 mM DTT; 1-site model (average of two repeats) and 2-site model with fixed N = 1 (global fit); settings: both partners purified
T1 construct: Calcineurin A subunit, human PPP3CA, from pET15b CnA CnB; Calcineurin B subunit, human PPP3R1, from pET15b CnA CnB; also called Cn; PP2B; source: E. coli BL21(DE3) or BL21 Star (DE3), purified (ammonium sulphate, Ni-NTA, Resource Q, S200 SEC)

[2] = target: T1, Calcineurin (human PPP3CA / PPP3R1 …); assay: SPR; Biacore T200, 25 °C; biotin-Cys-AKAP constructs immobilised on an SA chip, Calcineurin as analyte; 10 mM PIPES pH 6.5, 150 mM NaCl, 0.05% Tween20; apparent Kd from fit of the response at the end of association vs concentration ('steady-state'); settings: both partners purified

Kd [1] [µM]	stoichiometry N [1]	Kd [2] [µM]	Binder
1.5	0.99 AKAP5c:Cn	–	AKAP5c_(ILVF->SA) (domain or fragment, AKAP5 (AKAP79), human, residues 300-427; all I, L, V and F residues of the three secondary sites mutated to S or A; PIAIIIT site present; Generated by gene synthesis (GeneArt); 15N-labelled for NMR, unlabelled for ITC; also called AKAP_(ILVF->SA); source: E. coli BL21(DE3) or BL21 Star (DE3), purified (heat step, Ni-NTA, Resource Q)) VAEETKPKDTELSQESDFKENGITEEKSKSEESKRMEPIAIIITDTEISEFDVTKSKNVPKQASASAENEQVGVFANDNGFEDRTSEQYETASAETASSLVKNAAQSSAEQSANEMASDDNKINNLLQ
–	–	~0.6	Biotin-Cys-AKAP5c_(ILVF->SA) (domain or fragment, biotin (EZ-Link Maleimide-PEG2-Biotin) on the unique added N-terminal Cys, unique Cys added immediately after the GS of the thrombin or TEV site; AKAP5 (AKAP79), human, residues 300-427; all I, L, V and F residues of the three secondary sites mutated to S or A; A GS remnant of the protease site probably precedes the Cys; also called AKAP5c_(ILVF->SA) (on the SPR surface); source: E. coli BL21(DE3) or BL21 Star (DE3), purified (heat step, Ni-NTA, Resource Q), …) CVAEETKPKDTELSQESDFKENGITEEKSKSEESKRMEPIAIIITDTEISEFDVTKSKNVPKQASASAENEQVGVFANDNGFEDRTSEQYETASAETASSLVKNAAQSSAEQSANEMASDDNKINNLLQ
